Data published in patent US20230109208A1 (priority 2020, published 2023).
Values joined by “and” are separate entries in the source; they are usually repeats but may differ in a detail not shown here. Identical values can stand only once. Like-named read-outs stand apart in the source and are kept apart here.

Legend:
[1] = tested on: COVID-19 (SARS-CoV-2); details: cited from earlier work; for Mean Days to Discharge (**median): Lopinavir/Ritonavir cohort
[2] = target: human GM-CSF (Homo sapiens, UniProt P04141); assay: Binding of lenzilumab to GM-CSF
[3] = tested on: severe and critical COVID-19 pneumonia (SARS-CoV-2); details: for deaths / mortality: data cutoff May 1, 2020; for ALT after lenzilumab / AST after lenzilumab: individual patients: peak (patient 4) or at discharge (patients 5, 8)
[4] = Four completed clinical trials of lenzilumab (healthy volunteers, asthma, rheumatoid arthritis, CMML); type: in vivo, human; details: 113 individuals in 4 completed trials
[5] = tested on: COVID-19 associated chronic ARDS (SARS-CoV-2); type: in vivo, human; details: one patient
Description: Hospitalized subject with confirmed COVID-19 pneumonia and established risk factors for poor outcomes was treated in the ICU for 12 weeks using standard supportive care for chronic acute respiratory distress syndrome (ARDS). […] Patient characteristics, clinical and laboratory outcomes, and adverse events were recorded through duration of hospitalization.
Over the course of their ICU stay, the patient developed acute respiratory distress syndrome (ARDS).

[6] = tested on: severe COVID-19 pneumonia (SARS-CoV-2); details: for Incidence of IMV / Incidence of IMV and/or death / Incidence of death / Incidence of clinical improvement: n = 12
[7] = 12 patients (same cohort in Examples 8 and 10)
[8] = individual patient narratives, listed as lenzilumab
[9] = one patient, pretreatment vs 48 hours post-lenzilumab
[10] = patient 5 at discharge, unit not given

Chain of human GM-CSF (P04141 18-144): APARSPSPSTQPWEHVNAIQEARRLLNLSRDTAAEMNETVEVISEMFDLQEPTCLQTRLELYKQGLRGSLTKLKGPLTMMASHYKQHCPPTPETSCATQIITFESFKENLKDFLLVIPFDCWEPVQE

For “Tocilizumab: anti-IL6 receptor monoclonal antibody; IL-6 antagonist”, which “Mean Days to Discharge” value ([1]; Tocilizumab cohort) is on record?
The value was 13.5 days.

What does the source list for “lopinavir and ritonavir [Lopinavir/Ritonavir]”?
Mean Days to Discharge (**median) [1]: 13** days; Mean Days to Discharge (**median) ([1]; listed as Lopinavir-Ritonavir): 13 days

B1: Lenzilumab: Humaneered recombinant monoclonal antibody, derived from mouse antibody LMM102, targeting and neutralizing human GM-CSF (antibody, chains of the INN, looked up, V domains shown)
VH: QVQLVQSGAEVKKPGASVKVSCKASGYSFTNYYIHWVRQAPGQRLEWMGWINAGNGNTKYSQKFQGRVTITRDTSASTAYMELSSLRSEDTAVYYCVRRQRFPYYFDYWGQGTLVTVSS
VL: EIVLTQSPATLSVSPGERATLSCRASQSVGTNVAWYQQKPGQAPRVLIYSTSSRATGITDRFSGSGSGTDFTLTISRLEPEDFAVYYCQQFNKSPLTFGGGTKVEIK
Which results are given for B1?
binding affinity [2]: picomolar range; hemoglobin on day 6 in one patient ([3]; 10.3 on day 0, renal biopsy day 2, subcapsular hematoma): 7.9 g/dL; median time to discharge post-lenzilumab ([3]; 11 discharged patients, range 3-19): 5 days; patients with clinical improvement of at least 2 points on the 8-point ordinal scale ([3]; 11 of 12 patients): 92% and 91.7%; hematological toxicity ([3]; 12 patients): not associated with any hematological toxicity; adverse events attributable to lenzilumab [3, 7]: no treatment-emergent adverse events attributable to lenzilumab; infusion reactions [3, 7]: no infusion reactions; median time to a 2-point clinical improvement ([3]; 95% CI 2-7 days): 5 days; time to resolution of fever in patients febrile at baseline ([3]; after lenzilumab administration): ≤ 48 h; Lymphocytes 1st Lab, summary of patients 1-5 ([3]; average of 5 patients): 1.044; Lymphocytes Last Value, summary of patients 1-5 ([3]; average of 5 patients): 1.422; Lymphocytes Low, summary of patients 1-5 ([3]; average of 5 patients): 0.912; Neutrophils 1st Lab, unlabelled summary line of patients 1-5 ([3]; average of 5 patients): 3.892; Neutrophils High, summary of patients 1-5 ([3]; average of 5 patients): 6.008; Neutrophils Last Value, summary of patients 1-5 ([3]; average of 5 patients): 3.98; mean IL-6 on day 3 ([3]; baseline 26.8 pg/mL, p=0.035): 16.1 pg/mL; mean CRP on day 3 ([3]; baseline 137.3 mg/L, p=0.040): 51.2 mg/L; mean absolute lymphocyte count day 3 ([3]; baseline 0.89, p=0.107): 1.14e+09 L⁻¹; mean absolute neutrophil count day 3 ([3]; baseline 5.1, p=0.27): 4.8e+09 L⁻¹; mean hemoglobin day 3 ([3]; baseline 12.9, p=0.89): 11.4 g/dL; mean temperature at day 3 ([3]; baseline 37.95, p=0.023): 36.97; proportion of patients with SpO2/FiO2<315 at end of observation ([3]; baseline 67%, p=0.00015): 8%; mean platelet count day 3 ([3]; baseline 217.7, p=0.001): 2.618e+11 L⁻¹; deaths / mortality [3]: no reported mortality; deaths / mortality ([3]; listed as lenzilumab): no deaths; patients discharged on home oxygen ([3]; five patients): 42%; ferritin after lenzilumab ([3]; individual patient narratives): 571 µg/L; CRP after lenzilumab ([3]; individual patient narratives, dates in text): 91 mg/L and 46 mg/L; D-dimer after lenzilumab [3, 8]: 1507 ng/mL and 1759 ng/mL and 1802 ng/mL; ferritin after lenzilumab [3, 8]: 1143 µg/L; IL-6 post Rx ([3]; individual patients, data to Apr. 13, 2020): 4.6 pg/mL; ALT after lenzilumab [3]: 175; AST after lenzilumab [3]: 96; ALT after lenzilumab ([3]; listed as lenzilumab): 169 and 137; AST after lenzilumab ([3]; listed as lenzilumab): 203 and 118; patients whose SpO2/FiO2 improved to >315 on day 1 ([3]; of 8 patients <315 at baseline): four; patients with 2-point improvement ([3]; of 12): 1 patients; patients with ≥3-point improvement ([3]; of 12): 10 patients; patients requiring invasive mechanical ventilation ([3]; one patient): 8.3%; cytokines of the cytokine storm (G-CSF, MDC, GM-CSF, IL-1α, IFN-γ, IL-7, FLT-3L, IL-1rα, IL-6, IL-12p70) [3, 9]: significant reduction; IL-6 after lenzilumab ([3]; patient 4, April 8): 95.4 pg/mL; LDH after lenzilumab ([3]; patient 4, April 8): 388 U/L; IL-6 after lenzilumab [3, 10]: 4.6; ferritin after lenzilumab [3, 10]: 1223; hemoglobin at last study observation, same patient ([3]; patient with subcapsular hematoma): 9.3 g/dL; patients requiring mechanical invasive ventilation ([3]; patients 1-5): None; time to clinical two-point improvement faster than comparators ([3]; vs Remdesivir, Lopinavir-Ritonavir (and Tocilizumab)): more than 50%; tolerability, frequency and severity of adverse events [4]: very well tolerated; lymphopenia post lenzilumab [5]: appeared to improve; infusion-related or systemic side effects ([5]; 600 mg IV every 8 hours, 3 doses): No infusion-related or systemic side effects; patients free of ARDS (SpO2/FiO2 of 315 or higher) by end of observation ([6]; 11 patients, P=0.43): 92%; mean SpO2/FiO2 over time post-treatment vs untreated ([6]; P<0.001): statistically significant difference; CRP reduction (mean) ([6]; after 4 days, control −0.95, P .01): 135.8; IL-6 concentration on day 4 ([6]; baseline 28.6 pg/mL, P=0.02): 8.52 pg/mL; mean CRP after treatment ([6]; baseline 172.2 mg/L, 4 days post-treatment, P=0.04): 36.4 mg/L; mean absolute neutrophil count day 4 ([6]; baseline 5.1, P=0.27): 4.8e+09 L⁻¹; mean hemoglobin day 4 ([6]; baseline 12.9, P=0.89): 11.4 g/dL; IL-6 reduction ([6]; baseline vs day 4): 20.1; ALC increase ([6]; control 0.03, P .04): 0.46 × 10*9/L; Mean temperature reduction ([6]; control 0.459, P .02): 1.075; PLT increase (mean platelet count from baseline) ([6]; control 63.2, P .61): 52.5; Ventilator-free survival vs untreated group ([6]; log-rank x^2=3.67, P=0.06): favored; Incidence of IMV [6]: (8%); Incidence of IMV and/or death [6]: (8%); Incidence of death [6]: (8%); Incidence of IMV and/or death ([6]; P .07): 1 patients; Incidence of IMV ([6]; P .10): 1 patients; Incidence of death ([6]; P .43): 1 patients; Incidence of clinical improvement ([6]; P .43 vs control): 11 patients; Incidence of clinical improvement ([6]; at least 2 points on 8-point scale): (92%); Incidence of clinical improvement ([6]; at least 2 points on 8-point scale, listed as lenzilumab): 92%; Incidence of IMV and/or death ([6]; listed as lenzilumab): 8%; cytokines and chemokines involved in the cytokine storm [6, 9]: significant reduction; Days to resolution of fever ([6]; range 1-6, P .22): 2 days; Days to clinical improvement (median) ([6]; range 1-14, control 11, P .006): 5 days; Days to discharge from hospital (median) ([6]; range 3-19, control 11, P .008): 5 days; Increase in mean absolute lymphocyte counts ([6]; untreated 0.03, P=0.04): 4.6e+08 L⁻¹
